B1: POU domain, class 5, transcription factor 1, residues 134 to 212; numbered along this chain, Q01860 (parent)
chain: EESQDIKALQKELEQFAKLLKQKRITLGYTQADVGLTLGVLFGKVFSQTTICRFEALQLSFKNMCKLRPLLQKWVEEAD
B2: Histone-lysine N-methyltransferase SETD2, residues 2382 to 2430; numbered along this chain, Q9BYW2 (parent)
chain: SPPKPKTIVLPPNWKTARDPEGKIYYYHVITRQTQWDPPTWESPGDDAS

Variants of: B1
Test: abundance fitness (aPCA) (normalised: wild type 0, dead -1); higher = more abundant; growth selection in yeast, the domain comes from the species named
Conditions: Homo sapiens

Abundance fitness: each site, then its substitutions
K73: Q -0.1, E -0.595, Y -0.595, W -0.474, I -0.448, G -0.386, S -0.659, L -0.289, H -0.349, C -0.397, M -0.799, P -0.506, T -0.083, A -0.131, F -0.566
K66: F 0.04, D -0.477, N 0.209, Q -0.051, M 0.113, R -0.01, A -0.011, S 0.003, P -0.51, V -0.365, G -0.185, T -0.187
P69: V -0.414, R -0.613, W -0.999, L -0.351, N -0.008, H -0.208, M -0.662, K -0.304, G -0.085, A -0.252, T -0.652, Q -0.618, F -0.473
E77: M 0.037, R -0.108, G -0.124, L -0.124, K -0.074, P -0.264, H 0.144, Y 0.096, N 0.718, V -0.161, D -0.107, Q 0.184, W 0.226, A -0.124, I -0.079, T -0.129
W74: G -0.158, E -0.138, R -0.734, D -0.447, F -0.131, V -0.264
V75: G -0.645, H -0.025, P -0.203, C -0.343, D -0.413, S -0.106, T -0.299, K -0.056, R -0.661, E -0.353, M -0.293, Q -0.206, W -0.802, A -0.815, I 0.056
R68: Y 0.356, P -0.734, W 0, V -0.609, K -0.154, A -0.265, T -0.436, D -0.621, S -0.535, E -0.421, L -0.222, G -0.797, Q -0.384
A78: R -0.289, M -0.033, G -0.304, C -0.36, I 0.292, P -0.549, Q 0.053, S -0.13, V 0.216, E -0.06, T -0.014
M64: Y -1.06
L67: T -0.494, R -0.575, N 0.553, S -0.608, C -0.363, W -0.851, M -0.052, A -0.612, Q -0.756, E -0.289
L71: F -0.562, Q -0.658, E -0.344, R -0.509, Y -0.435, P -0.07, H -0.207, T -0.246, M -0.251, W -0.323, D -0.869, C -0.474, S -0.911, A -0.51, V -0.728
D79: P 0.393, R -0.187, Y -0.505, C -0.509, G -0.312, E -0.067, A -0.741, T -0.122, S -0.374, V 0.111
E76: M -0.017, R -0.315, S -0.188, Q -0.173, K -0.133, W -0.425, C -0.066, F -0.155, P -0.892, A -0.139, L -0.368, H -0.032, D 0.003, G -0.644, V -0.434
Q72: H -0.039, Y -0.582, L -0.323, R -0.309, V -0.337, M -0.31, S -0.371, I -0.119, P -0.438, E 0.342, T -0.36, D -0.379, K -0.025, G -0.302, C -0.09, A -0.354, W -0.837
C65: D 0.155, M -0.04, Y -0.449, Q 0.074, R -0.18, N -0.343, T -0.403, W -0.289, K -0.271, A -0.381, V -0.178, L 0.14, G -0.691, S -0.393, I 0.246
L70: W -0.442, T -0.325, V -0.406, P -0.364, G -0.574, C -0.171, F 0.145, Q 0.143, R -0.653, Y 0.262

Variants of: B2
Test: as above
Conditions: Homo sapiens

Abundance fitness, by site and new letter:
K4: C -0.564, T -0.275, V -0.573, L -0.293, H -0.221, Y -0.046, A -0.836, M -0.051, F -0.41, R -0.532, D -0.927, S 0.007, E -0.908, G -0.97, Q -0.541, N -0.144, I -0.154, P -0.386, W -0.798
P2: Y 0.539, E -0.224, A 0.131, T 0.178, S 0.237, I 0.712, R -0.118, N 0.461, H 0.314, L 0.317, M 0.026, V -0.065, Q -0.007, W -0.293, G 0.045, K -0.087, F 0.031
V9: D 0.486, H -0.068, F 0.049, G -0.167, C 0.084, E -0.255, A -0.187
P5: S 0.163, Y -0.066, Q 0.007, I 0.077, K 0.159, V 0.162, W -0.63, E 0.057, R -0.006, L 0.125, A 0.102, N 0.294, T 0.211, F 0.133, H -0.17, D 0.133, C -0.396, G 0.118, M 0.199
S1: E -0.534, F 0.246, A -0.597, V -0.252, N 0.442, C 0.007, Y -0.521
P3: I 0.115, Q 0.262, N 0.585, W 0.064, L 0.105, A -0.191, V 0.444, R 0.274, C -0.508, K 0.325, G 0.129, E 0.408, F 0.197, M 0.369, D 0.371, Y 0.335, T 0.155, S 0.281, H 0.126
K6: P -0.35, A -0.032, S 0.103, E -0.19, Y -0.227, C -0.303, W -0.393, I -0.037, M 0.018, G 0.037, T -0.148, N 0.018, F -0.121, D -0.074, R -0.046, L -0.339, Q 0.07
T7: I -0.212, W -0.462, S 0.105, D -0.134, N 0.127, Q 0.013, A 0.028, H 0.116, L -0.214, G 0.138, P -0.375, R 0.094, M 0.026, V -0.148, E -0.045, F 0.278, C -0.062, Y -0.155
I8: P -0.282, W 0.001, A -0.1, Q -0.056, C 0.105, F -0.021, L 0.165, T 0.021, M 0.179, Y -0.108, E -0.096, V 0.201, R 0.06, N 0.112, K 0.03, D -0.164, G 0.037
